A protein production outcome set (Wang et al. 2014)

Assay: label from the status in PepcDB records
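Also: failed if final PepcDB status was selected cloned or expressed and not failed if soluble or beyond.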

Sequence	protein production
MKPKSMKEKLVKDMMSILNLRIKMIDVNGLLKELDDALDKVVAKKEPESFLKPIISPIEDYQKSVRQIQAQFTDAPKFNEEGAYPQFLSCGLLEIKGKNGASMEFCLPKVYPFPPKSLYIEHEKDGQFLREMLMRLLSSAPLVQLEVILVDALSLGGIFNLARRLLHKDNDFIYQQRILTESKEIEEALKHLYEYLKVNLQEKLAGYKDFAHYNEEKKDRLPLKALFLSGVDALSQNALYYLEKIMRFGSKNGVLSFVNLESEKNNKSTEDLKRYAECFKDRTSFERLKYLNIEVINDHGIQSKHMKDFADKIKAYYEKKKAVKRELKDLQKDEKFWTESSQFKVSVPVGWDINHKEVCFEIGNEQNHTLICGRSGSGKSNFLHVLIQNLAFYYAPNEVQLFLLDYKEGVEFNAYTDPNILEHARLVSVASSVGYGMSFLNWLCKEMQERANLFKQFNVKDLSDYRKHGEIPRLIVVIDEFQVLFSDNKSTKAVEGHLNTLLKKGRSYGVHLILATQTMRGTDINRSIMAQIANRIALSMDAEDSNSILGDDAACELVRPEGIFNNNGGHQKHHTKMSIPKAPDDFKPFIKKIHRDFNQRNLVPVEHKIYNGEKPLEMPNTLKANEMRLHLGKEADYEQKDLMVGFENSESHLLVVSQDLSARIALMKLFAQNFKTANKELLFYNAEKRLARELDELKKHHITPMQGPLGSVLDTAMNPNSVLVIDNLNEAKELHDKIGVEKLRSFLEKATDNEQYCIIFAHDLKQIQANYDLSKLKELLNNHFKQRLAFRCNGENLSAIKKDLPLLTNELNALFVELSKDSHTEFRPFSL	failed
MKPPADNNKEGAESHKLESESKPIWKSMSMFLVPLLLSNVLQSVGQLFGMVVVGRWLGVNDLAAISAFFPLFFLLVSFVIGIGSGSSILIGQAFGAKNEDRLKAIVGTTLTFTFIIGVLLAIIGSIFAMDIMRLMGTPENIIEISVHYARILFISMPVLFLYFAYTTFMRGTGDSKTPFYFLIVSTALNMILLPILIFGWLGAPKLDVYGAAYASVISTVITFIVMLVYLKKKNHPLQLDGTVRKYLRMDGELLKLLLRLGIPASINMILVSLSEIAVIAFVNRYGSDATAAYGVVNQVASYVQMPAVSLGITVSIFAAQSIGANQFDRLQKVVKAGIIMNYVIGGVLISLIYVFSRDILSLFLTSQTTIEIAHSLVMITLWSYLIFGHAQIISATMRASGTVLWPTVIGVVSIWLVEVPVAYYLSYHTSLGIEGIWIGYPAAFIVSLILQYAYYKLSWQKKRITRLVS	not failed
MKPRRKSALLWGAVAALSFLVLHQGYLLAGGAFLGVGPVAAVTVAVFVGGAAVSYYAEGRFGLFGWRR	failed
MKQEEDKFTGLPENAFRELKAGEVYNPLMSPSKNYPEVNFWSVTWGIAMAILFSAAAAYLGLKVGQVFEAAIPIAIIAVGVSGAAKRKNALGENVIIQSIGACSGVIVAGAIFTLPALYILQVKYPEMTVSFMQVFISSLLGGVLGILFLIPFRKYFVSDMHGKYPFPEATATTQVLVSGEKSGSQAKPLLMAGMIGGLYDFIVATFGWWNENFTTRVCGAGEMLAEKAKLVFKVNTGAAVLGLGYIVGLKYASIICAGSLAVWWIIIPGMSAIWGDSVLNAWNPEITSTVGMMSPEEIFKYYAKSIGIGGIAMAGVIGIIRSWGIIKSAVGLAAKEMGGKGNVEKNIVRTQRDLSMKIIAIGSILTLILIVLFFYFDIMQGNIVHTLVAIALVAGISFLFTTVAANAIAIVGTNPVSGMTLMTLILASVVMVAVGLKGPSGMVAALVMGGVVCTALSMAGGFITDLKIGYWLGSTPAKQETWKFLGTIVSAATVGGVMIILNKTYGFTSGALAAPQANAMAAVIEPLMSGVGAPWLLYGIGAILAIVLTFFKIPALAFALGMFIPLELNVPLVVGGAVNWYVTSRSKDTALNTERGEKGTLLASGFIAGGALMGVVSAAMRFGGINLVNEAWLNNTWSEVLALGAYALLILYFIKASMKVK	failed
MKQEETKRYESFKREFFHWFLAFSGDEPFSVAAGELLMMLKEELALQQAVLYLFDPSCDAFCPEAAAGRMPAAESIVAEEKQEIVVIDDGGPCIVVRLFFLLSEETRAMLELMYGKERHIDREWLKVLRTDLSSLFRKLSALSQRTSEENRYEQLHRFAAKIHSTMQIDDVLEEIICTLQNVYPAFTYHLLLSHDNHVCGNLPIKTLALDESEGQPAALRAFLTGQVQCEETAAPPRSVLYAPIKGVQAVYGVIQIIAPYAAPFPKREINFISLLAGTAGRALENAKLYEQSRRLVADLQLINDTMRQLNARPRLCEAIEYMVSQIKESFGADEVGFFLFADGKRELLRGSTPFFYNDLSALYVEWVEARLLSGNDILFAGDVRTSDFGPFRSIMAAPMMQNKEMKGVCIVLAYETYRFTFEMFKLLQSLVQHSTLAFMNAILREELEKLVVTDYLTKLYTRRYLDEAIQKSMEEDALGSFLLIDIDNFKQINDTYGHQTGDDVLVQVAKMIRTNIRDGDIAARWGGEELAVYLPKVALLDAIAIARRIVEKVREHTVPSVTVSCGLSSWRRHDHDDAEQLFKRADAALYMAKETGKNAIFVHDGDHLYRG	failed
MKQEETLTKVKVAEVTHSIFYAPLYVAESKGFFKEEGLDVDVNTTWGGDKTMTSLLSNGSDIALVGSETSIYVEAQGAKDPVINFAQLTQTDGTFLVAREDVEHFDWDQLKGKTFLGQRKGGMPQMVGEYVLNKHKIDPHKDIDLIQNIDFANIANAFASGTGEYVQLFEPQLLSLRKKASAISWLHSEKNQERFLIRLLWRNKAILEHHHHHH	failed
MKQIAFIGLGHMGAPMATNLLKAGYLLNVFDLVQSAVDGLVAAGASAARSARDAVQGADVVISMLPASQHVEGLYLDDDGLLAHIAPGTLVLECSTIAPTSARKIHAAARERGLAMLDAPVSGGTAGAAAGTLTFMVGGDAEALEKARPLFEAMGRNIFHAGPDGAGQVAKVCNNQLLAVLMIGTAEAMALGVANGLEAKVLAEIMRRSSGGNWALEVYNPWPGVMENAPASRDYSGGFMAQLMAKDLGLAQEAAQASASSTPMGSLALSLYRLLLKQGYAERDFSVVQKLFDPTQGQ	not failed
MKQKNVYIVIGFMLFALFFGAANLIYPAFLGIYSGHQILWSIIGFCLTGVSLPLLGVIAVAKSGSGDVESLARPISKWYAIFYSSILYLSIGPFFAIPRTGATSFSVGIAPILGDNTTNKAIYAILFFGLSYFLAIKPSKLAENIGKFLTPTLLVVISILVIASFVHPAGNYGDAFNAGVGVNNAFKDFPFIAGLIQGYGTMDALASLVFAILVIEATKQFGAKTDKEMTKITLISGAIAILLLALVYIFVGRIGATSQSLFPFIDGSFTLHGNPVNGGQILSHASRFYLGGIGQAFLAVVIFLACLTTSTGLITSSAEYFHKLVPALSHIAWATIFTLLSAFFYFGGLSVIINWSAPVLFLLYPLTVDLIFLVLAQKCFNNDPIVYRTTIGLTFIPAIFDALLTLSQMTGLFHLPEAVVTFFQKTVPLGQFSMGWIIFAAIGFLIGLILSKTKKS	failed
MKQLMLYCRSGFEKECAGEIQDKATQLEVYGFPRVKKNSGYVVFECYQDGDAEKLVKGLDFSSLIFARQMFAVAAEFEALPSEDRISPILAELSEFESFPRCGDLRIETPDTNEAKELLKFCRKFTVPMRQALRGKGLMWNKDNAKKPVLHICFVAPGHCYVGYSLPGNNSQFFMGIPRLKFPADAPSRSTLKLEEAFHVFIPRDEWDERLAPGMWGVDLGACPGGWTYQLVKRSMFVHCVDNGMMADSLMETGQIKHHMVDGFKFEPDRKNVTWIVCDMVEKPARVAHLMGQWLLKGWAKEAIFNLKLPMKGRYDEVLQDLENLKMFLIENKVKFKLQAKHLYHDREEITIHIQCLSNISPH	failed
MKQMNVVLIGGGTGLSVLARGLREFPIDITAIVTVADNGGSTGKIRDVMDIPAPGDIRNVIAALSDSESILTQLFQYRFGENQVDGHSLGNLVIAGMTNITNDFGHAIKELSKVLNIKGQVIPSTNASVQLNAVMEDGEIVHGETNIPKTHKKIDRVFLEPSDVEPMNEAIEALEQADLIVLGPGSLYTSVISNLCVKGISEALLRTSAPKLYVSNVMTQPGETDNYDVKEHIDALTRQVGEPFIDFVICSSESYSKDVLQRYEEKNSKPVAVHKEQLKDSGIRVLTASNLVEISNEHYVRHNTKVLSKMIYELALELTSTIRFTPSDKKK	not failed
MKQPNYYQDVKQFHQTFHHPGADQPTAIPLDRGVKRATWTAEEAVVEFLHQSSQNETEFLAAIETFKAGLDQAVKKSLKETYPVTEVERLVGQGDALTDALYFIMGSFVEAGLEPGPLFEIVQQANMAKLGPDGQPIFRESDQKVMKPDGWLPPEPQLEAEVVRQMKEKA	not failed
MKQVNVDVAVIGGGTAGLGSYRAAKAHTDSVVMIEGGPYGTTCARVGCMPSKLLIAAAESVHQIEKAPKFGIHPQGEIVINGREVMERVKFERDRFVGFVLEGVDEIPAEDKISGYAKFLDDNTLQVDDHTIINAKRIVIATGSRPAYPAVWNELGDRLIINDDVFNWDDLPKSVAVFGPGVIGLELGQALHRLGVETKLFGLGGQVGPVTDPEVMAYANKAFNEEFYLDADVKVESMKRITTESGEERVEIQFINKQGELETNIVEYVLAATGRRPNTDKLGLENTSIELDERGVPTADFYTLQTSLPTVFIAGDASNQLPLLHEAADQARIAGDNAGRFPEIRAGLRRSKISAVFSDPQIAMVGETYKEITTRLGTCGCFATGEVSFENQGRSRVMLRNKGILHVYGEQGTGRFLGAEMMGPNAEHLAHLLAWAHQNKMTVSEMLDMPFYHPVIEEGVRTALRDLNAKLHLGPEMIKHCMDCGPGC	failed
MKQWIAALLLMLIPGVQAAKPQKVTLMVDDVPVAQVLQALAEQEKLNLVVSPDVSGTVSLHLTDVPWKQALQTVVKSAGLITRQEGNILSVHSIAWQNDNIARQEAEQARAQANLPLENRSITLQYADAGELAKAGEKLLSAKGSMTVDKRTNRLLLRDNKTALSALEQWVAQMDLPVGQVELSAHIVTINEKSLRELGVKWTLADAQHAGGVGQVTTLGSDLSVATATTHVGFNIGRINGRLLDLELSALEQKQQLDIIASPRLLASHLQPASIKQESEIPYQVSSGESGATSVEFKEAVLGMEVTPTVLQKGRIRLKLHISQNVPGQVLQQADGEVLAIDKQEIETQVEVKSGETLALGGIFTRKNKSGQDSVPLLGDIPWFGQLFRHDGKEDERRELVVFITPRLVSSELEHHHHHH	not failed
MKRAYVLLIGLSMLLISLIVPFPLALSFVILAGLFIAHFSKMEEKEVNMIITATVSLFIGLLGGLLGSMIHHNISSTWTLLSAHGGLFLIALIGYFFMVLILMTLGSMIDKVISKARSKSL	failed
MKRCDRMNYREEYEKKLISPEEAAGLVESGMHIELGGAANTALIIDKYLAKRKDELENVKVGTFIDLAHYEFLKADPNGEVFEWSSGFLYRPVRKTSKELGPCVFRPNLYHDVPKIVREFSKDYDPIDIAYLVTTPMDKHGYFNFGLTCSHMKALAEVAEKVVVVVKENMPWVNGGYDECIHISEVDYIVEDNEMPVPFIPFSIPPTKEDEMIAENILNAETKDGRKLIQDGSTLQVGIGGLPDTVVKMLKEGGYKNLGVHTEMMGDGTLELIEEGVVTNDQKRLDRGKSVFTFALGSLKLYEYLDRNPEVATYPVDYTNDPFIIAQQPKMFSLNQAAEADLMGQINSEQMGLISPTGKLYQVSGTGGQLDFVMGCLFSRDRQGFSILAMYSTHNGTSRIKPILPPGAAVTVPRSMVQVVATEWGVAYLKGLTVKERAIAMIHLAHPDHREWLEKEAEKLGLLPPNYTIPAGKPDYLLYKRDLEHHHHHH	not failed
MKRFARKETIYLRGEEARTLYRLEEGLVRVVELLPDGRLITLRHVLPGDYFGEEALEGKAYRYTAEAMTEAVVQGLEPRAMDHEALHRVARNLARQMRRVQAYEAHLQTGELRARIARYLLFLADTPLSARDRQGIYVTVSHEEIADATASIRESVSKVLADLRREGLIATAYRRVYLLDLAALEREAGSALEAA	not failed
